Key:
[1] = biological target: cathepsin B from human (human)
[2] = biological target: papain from Carica papaya (Carica papaya) (UniProt P00784)
[3] = biological target: cathepsin L from human (human)

Chain of papain from Carica papaya (Carica papaya) (P00784 134-345): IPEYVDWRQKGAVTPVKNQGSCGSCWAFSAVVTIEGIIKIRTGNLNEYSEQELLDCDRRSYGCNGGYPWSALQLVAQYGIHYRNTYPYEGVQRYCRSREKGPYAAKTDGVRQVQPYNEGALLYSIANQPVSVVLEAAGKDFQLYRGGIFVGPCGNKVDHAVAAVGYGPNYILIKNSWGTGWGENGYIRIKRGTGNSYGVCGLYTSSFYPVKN

## TK-cystatin (secretory cystatin from Thelohanellus kitauei) (natural protein)
[1]
  IC50 of inhibition of cathepsin B activity (0.026 μmol/L cathepsin B, fluorogenic substrate Z-Arg-Arg-AMC, pH 5.5, increasing TK-cystatin): 2.1 μmol/L
[2]
  IC50 of inhibition of papain activity (0.15 μmol/L papain, fluorogenic substrate Z-Phe-Arg-AMC, pH 5.5, increasing TK-cystatin): 0.8 μmol/L
[3]
  IC50 of inhibition of cathepsin L activity (0.026 μmol/L cathepsin L, fluorogenic substrate Z-Phe-Arg-AMC, pH 5.5, increasing TK-cystatin): 0.175 μmol/L
